One block for each binder: values may come before it.
Legend:
[1] = molecular target: T1, huCD64 (Fc gamma RI) expressed on stable CHO cells (human, UniProt P12314 16-374); assay: flow cytometry on stable CHO cells expressing huCD64; hIgG1 [N297A] antibody, GMFI; the text ascribes this binding to the Fc portion
T1 construct: whole, on cells; also called CHO-huCD64
Method: (§1) The binding of huCD32b specific antibodies was evaluated by flow cytometry using stable CHO cell lines expressing the low affinity human CD16 variants (i.e huCD16a or huCD16b variants) and the high affinity huCD64 (FcγRI). CHO cells transfected with huCD16a variants were also transfected with the common Fcγ chain in order to allow for surface expression. CHO cells were collected following detachment with PBS containing 2 mM EDTA and pelleted. Cell pellets were washed once in PBS and suspended in FACS Buffer (PBS1× containing 2% BSA, 2 mM EDTA and 0.1% NaN3), counted and suspended at 0.25×10⁶ cells per ml. 50'000 cells/well (200 μl) were then dispensed in V-bottomed 96 well plates. Plates were spun for 5 min at 1600 rpm and the supernatant discarded. […] After 3 successive washes with FACS buffer, cells were suspended in 50 μl FACS buffer containing a 1/100 dilution of the F(ab′)2 anti-human F(ab′)2-PE (Jackson Immunoresearch#109-116-097) and further incubated 30 min at 4° C. Cells were washed twice and suspended in 200 μl FACS buffer and acquired on a FACS Canto II (acquisition of 5000 cells in the live cell gate). The Geometric Mean Fluorescence (GMFI in the PE channel) was used as a measure of the binding intensity of each antibody.

[2] = molecular target: T2, human CD32b expressed endogenously on human cells (human, UniProt P31994 43-310); assay: flow cytometry titration (GMFI), biotinylated IgG1 [N297A] on purified primary human B cells, CD20+ gate
T2 construct: whole, on cells; The background says that CD32b1 is the form on lymphoid cells and CD32b2 the form on myeloid cells; also called CD32b on primary human B cells, plasma cells, macrophages, BJAB, KARPAS422 and Daudi cells
T2 sequence (looked up): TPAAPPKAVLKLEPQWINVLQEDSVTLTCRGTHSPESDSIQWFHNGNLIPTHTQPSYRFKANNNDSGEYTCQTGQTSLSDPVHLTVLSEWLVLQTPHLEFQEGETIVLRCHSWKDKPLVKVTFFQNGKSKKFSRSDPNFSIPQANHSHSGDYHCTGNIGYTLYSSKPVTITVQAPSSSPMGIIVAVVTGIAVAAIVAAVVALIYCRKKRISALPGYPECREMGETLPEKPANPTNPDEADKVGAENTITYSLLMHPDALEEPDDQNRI
Method: Plates were spun for 5 min at 1500 rpm and the supernatant discarded. […] Biotinylation of antibodies was performed using the Lightning-Link biotin conjugation kit (Type A) from Innova Biosciences (Cat. No 704-0010) according to the supplier's instructions. […] Cells were washed twice and suspended in 200 μl FACS buffer and acquired on a FACS Fortessa.

MW82 (huCD32a H131) = molecular target: T3, MW82 (huCD32a H131) (human, UniProt P12318); assay: flow cytometry on stable CHO cells expressing huCD32a H131 (MW82); hIgG1 [N297A] antibody, GMFI
T3 sequence (receptor, looked up): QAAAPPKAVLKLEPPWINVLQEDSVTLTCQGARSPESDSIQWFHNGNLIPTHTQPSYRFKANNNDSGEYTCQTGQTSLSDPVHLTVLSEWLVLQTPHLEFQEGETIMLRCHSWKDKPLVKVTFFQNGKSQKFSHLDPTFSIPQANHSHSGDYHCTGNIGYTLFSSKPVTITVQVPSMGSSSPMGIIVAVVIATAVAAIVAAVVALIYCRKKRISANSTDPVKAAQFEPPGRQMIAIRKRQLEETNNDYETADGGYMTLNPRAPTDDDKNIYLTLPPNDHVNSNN
Method: as §1, with “HuCD32b and huCD32a have high degree” for “The binding”, “sequence homology. […]” for “huCD32b specific antibodies was evaluated by flow cytometry using stable CHO cell lines expressing the low affinity human CD16 variants (i.e huCD16a or huCD16b variants) and the high affinity huCD64 (FcγRI). CHO cells transfected with huCD16a variants were also transfected with the common Fcγ chain in order to allow for surface expression.”

[3] = molecular target: T2, human CD32b expressed endogenously on …; assay: flow cytometry on BJAB cells; biotinylated hIgG1 [N297A] antibody, streptavidin-PE, GMFI
Method: The binding of huCD32b specific antibodies to the BJAB cell line was evaluated by flow cytometry. BJAB cells were collected and suspended in FACS Buffer (PBS1× containing 2% BSA, 2 mM EDTA), counted and suspended at 0.25×10⁶ cells per ml. 50'000 cells/well (200 μl) were then dispensed in V-bottomed 96 well plates. Plates were spun for 5 min at 1500 rpm and the supernatant discarded. […] Biotinylation of antibodies was performed using the Lightning-Link biotin conjugation kit (Type A) from Innova Biosciences (Cat. No 704-0010) according to the supplier's instructions. After 2 successive washes with FACS buffer, cells were suspended in 50 μl FACS buffer containing a 1/500 dilution of Streptavidin-PE (Invitrogen 521388) and further incubated for 20 min at 4° C. Cells were washed twice and suspended in 200 μl FACS buffer and acquired on a FACS Fortessa. The Geometric Mean Fluorescence (GMFI in the PE channel) was used as a measure of the binding intensity of each antibody.

huCD32b-deglyco [4] = molecular target: T4, huCD32b-deglyco (human, UniProt P31994 43-222, limits assumed, deglycosylated (deglyco) (so in the source)); assay: SPR (Biacore T200), IgG amine-coupled on the chip, huCD32b-deglyco analyte 0.61-5000 nM, 1:1 binding model; single experiment
T4 construct: Soluble analyte of the SPR assay; also called huCD32b receptor (SPR analyte); human CD32b
T4 sequence: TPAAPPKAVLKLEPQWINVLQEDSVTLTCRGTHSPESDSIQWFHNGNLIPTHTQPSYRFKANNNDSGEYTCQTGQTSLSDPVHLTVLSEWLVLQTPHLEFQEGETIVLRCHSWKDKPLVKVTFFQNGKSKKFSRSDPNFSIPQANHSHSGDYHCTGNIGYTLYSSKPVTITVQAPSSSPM
Method: (§2) Three independent direct binding assays with IgGs covalently immobilized on the biosensor and huCD32b receptor serving as analyte were performed to determine the binding affinities of the IgGs for huCD32b. Kinetic data were acquired by subsequent injections of analyte dilution series on all flow cells. Flow cell 1 (chip 1) served as a reference.
(§3) A dilution series of huCD32b-deglyco, 0.61-5000 nM (1:2 dilution series) in running buffer was injected over the surface (flow rate: 30 μl/min, association time: 60 sec, dissociation time: 120 sec). The chip surface was regenerated with one basic wash step before each analyte injection (30 μl/min; contact time: 30 sec, stabilization period: 250 sec). Data were evaluated using the Biacore T200 evaluation software version 1.0. The raw data were double referenced, i.e. the response of the measuring flow cell was corrected for the response of the reference flow cell, and in a second step the response of a blank injection was subtracted. Outlier sensorgrams were removed if necessary. The sensorgrams were fitted by applying a 1:1 binding model to calculate kinetic rate constants and dissociation equilibrium constants. Rmax was set at global whereas RI was fitted locally. Data were processed individually for each run. The generated values were used to calculate average values and standard deviations of the respective kinetic constants.

[5] = molecular target: T5, WT human CD32b1 expressed on stably transfected cells (human, UniProt P31994 43-310); assay: flow cytometry, Alexa-647 labelled hIgG1 [N297A] antibody, ΔMFI; stable BJAB cells expressing huCD32b
T5 construct: also called huCD32b; WT CD32b
T5 sequence: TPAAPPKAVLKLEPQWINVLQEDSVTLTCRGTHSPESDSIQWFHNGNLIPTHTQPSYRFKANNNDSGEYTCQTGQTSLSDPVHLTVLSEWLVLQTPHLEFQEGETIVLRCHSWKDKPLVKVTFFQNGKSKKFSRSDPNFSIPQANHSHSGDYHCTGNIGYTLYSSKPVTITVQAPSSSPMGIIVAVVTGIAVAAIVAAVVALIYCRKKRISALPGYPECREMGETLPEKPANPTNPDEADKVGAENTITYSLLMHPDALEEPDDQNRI

huCD32b-deglyco [6] = molecular target: T4, huCD32b-deglyco; assay: SPR (Biacore T200), IgG amine-coupled on the chip, huCD32b-deglyco analyte 0.61-5000 nM, 1:1 binding model; mean and standard deviation of the runs
Method: as §2, §3

T1 sequence (P12314 16-374): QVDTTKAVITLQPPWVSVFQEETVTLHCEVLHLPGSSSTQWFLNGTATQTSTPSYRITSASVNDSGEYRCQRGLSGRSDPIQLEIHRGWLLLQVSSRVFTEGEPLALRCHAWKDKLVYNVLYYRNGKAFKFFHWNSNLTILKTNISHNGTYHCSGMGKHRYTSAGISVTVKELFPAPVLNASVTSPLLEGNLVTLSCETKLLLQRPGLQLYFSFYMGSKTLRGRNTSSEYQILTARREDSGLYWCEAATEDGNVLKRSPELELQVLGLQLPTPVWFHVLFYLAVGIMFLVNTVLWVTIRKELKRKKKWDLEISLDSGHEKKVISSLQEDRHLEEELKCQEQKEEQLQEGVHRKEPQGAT

- binding result [1]: binds
- binding affinity [2]: 5.4 nM
- binding result (MW82 (huCD32a H131)): binds
- binding affinity (printed 'BJABs:') [3]: 2.4 nM
B1: NOV0281_N297A (antibody, human IgG1, lambda, N297A)
heavy: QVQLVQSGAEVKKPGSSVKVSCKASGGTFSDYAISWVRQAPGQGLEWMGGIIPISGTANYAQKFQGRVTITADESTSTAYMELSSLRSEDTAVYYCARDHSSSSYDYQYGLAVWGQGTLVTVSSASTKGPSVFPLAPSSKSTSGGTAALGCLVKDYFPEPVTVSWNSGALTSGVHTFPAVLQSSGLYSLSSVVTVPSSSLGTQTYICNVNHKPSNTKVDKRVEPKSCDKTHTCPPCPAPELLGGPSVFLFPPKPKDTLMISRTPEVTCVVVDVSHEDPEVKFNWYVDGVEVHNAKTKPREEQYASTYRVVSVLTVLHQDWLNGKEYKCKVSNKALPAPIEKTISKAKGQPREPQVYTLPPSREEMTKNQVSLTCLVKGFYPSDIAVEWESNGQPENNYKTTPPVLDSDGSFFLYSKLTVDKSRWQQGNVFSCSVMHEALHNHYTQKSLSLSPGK
light: DIELTQPPSVSVSPGETASITCSGDKLGDYYVHWYQQKPGQAPVLVIYQDSKRPSGIPERFSGSNSGNTATLTISGTQAEDEADYYCGATDLSPWSIVFGGGTKLTVLGQPKAAPSVTLFPPSSEELQANKATLVCLISDFYPGAVTVAWKADSSPVKAGVETTTPSKQSNNKYAASSYLSLTPEQWKSHRSYSCQVTHEGSTVEKTVAPTECS
notes: also called NOV0281 on a human IgG1 [N297A] scaffold

- binding result [5]: binds
B4: NOV2112 N297A (antibody, human IgG1, lambda, N297A)
heavy chain: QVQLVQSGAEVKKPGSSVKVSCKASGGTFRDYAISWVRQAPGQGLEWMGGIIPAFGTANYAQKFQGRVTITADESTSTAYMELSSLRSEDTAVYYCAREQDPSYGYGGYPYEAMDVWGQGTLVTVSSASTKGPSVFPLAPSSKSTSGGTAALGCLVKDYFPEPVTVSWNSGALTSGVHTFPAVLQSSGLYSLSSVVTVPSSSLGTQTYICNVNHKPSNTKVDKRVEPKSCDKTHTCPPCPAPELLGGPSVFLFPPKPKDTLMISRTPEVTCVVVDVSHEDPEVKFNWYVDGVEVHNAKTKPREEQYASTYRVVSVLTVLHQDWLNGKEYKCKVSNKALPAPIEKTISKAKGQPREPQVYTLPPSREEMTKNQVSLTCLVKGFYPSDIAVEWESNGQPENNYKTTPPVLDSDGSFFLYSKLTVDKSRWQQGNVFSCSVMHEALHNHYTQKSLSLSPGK
light chain: SYELTQPLSVSVALGQTARITCSGDNIPQHSVHWYQQKPGQAPVLVIYDDTERPSGIPERFSGSNSGNTATLTISRAQAGDEADYYCSSWDSSMDSVVFGGGTKLTVLGQPKAAPSVTLFPPSSEELQANKATLVCLISDFYPGAVTVAWKADSSPVKAGVETTTPSKQSNNKYAASSYLSLTPEQWKSHRSYSCQVTHEGSTVEKTVAPTECS

- binding result [5]: binds
B5: NOV2107_N297A (antibody, human IgG1, lambda, N297A)
heavy: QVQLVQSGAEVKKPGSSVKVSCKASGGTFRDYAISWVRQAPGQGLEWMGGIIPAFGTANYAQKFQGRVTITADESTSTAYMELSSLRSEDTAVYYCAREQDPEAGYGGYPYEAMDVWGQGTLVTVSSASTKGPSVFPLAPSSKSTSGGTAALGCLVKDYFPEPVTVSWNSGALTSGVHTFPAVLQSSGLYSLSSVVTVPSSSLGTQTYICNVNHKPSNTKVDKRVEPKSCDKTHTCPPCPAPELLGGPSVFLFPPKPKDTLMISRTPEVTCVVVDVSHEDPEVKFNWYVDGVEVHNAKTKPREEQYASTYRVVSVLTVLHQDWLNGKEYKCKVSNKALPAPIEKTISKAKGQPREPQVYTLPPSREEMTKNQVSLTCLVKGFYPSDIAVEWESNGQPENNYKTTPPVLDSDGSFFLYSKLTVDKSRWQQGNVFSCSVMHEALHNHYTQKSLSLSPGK
light: SYELTQPLSVSVALGQTARITCSGDNIPQHSVHWYQQKPGQAPVLVIYDDTERPSGIPERFSGSNSGNTATLTISRAQAGDEADYYCSSWDSSMDSVVFGGGTKLTVLGQPKAAPSVTLFPPSSEELQANKATLVCLISDFYPGAVTVAWKADSSPVKAGVETTTPSKQSNNKYAASSYLSLTPEQWKSHRSYSCQVTHEGSTVEKTVAPTECS
notes: CDR-H3 mutant of NOV1216; human IgG1 with N297A; also called Fc silent N297A variant of NOV2107

Further lines, the binder ahead of its results:

B2: NOV1216_N297A (antibody, human IgG1, lambda, N297A)
heavy: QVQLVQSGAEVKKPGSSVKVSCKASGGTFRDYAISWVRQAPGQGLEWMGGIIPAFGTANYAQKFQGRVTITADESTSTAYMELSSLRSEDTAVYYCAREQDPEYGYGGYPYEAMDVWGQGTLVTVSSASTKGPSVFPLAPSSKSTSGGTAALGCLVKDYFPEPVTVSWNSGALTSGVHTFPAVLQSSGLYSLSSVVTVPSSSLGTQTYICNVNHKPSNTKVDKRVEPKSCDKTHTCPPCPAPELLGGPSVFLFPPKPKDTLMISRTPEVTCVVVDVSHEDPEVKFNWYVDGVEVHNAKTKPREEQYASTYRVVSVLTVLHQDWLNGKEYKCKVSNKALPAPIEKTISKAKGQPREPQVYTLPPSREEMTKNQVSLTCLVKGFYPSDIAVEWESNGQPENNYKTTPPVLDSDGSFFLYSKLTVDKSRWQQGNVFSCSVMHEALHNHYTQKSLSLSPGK
light: SYELTQPLSVSVALGQTARITCSGDNIPQHSVHWYQQKPGQAPVLVIYDDTERPSGIPERFSGSNSGNTATLTISRAQAGDEADYYCSSWDSSMDSVVFGGGTKLTVLGQPKAAPSVTLFPPSSEELQANKATLVCLISDFYPGAVTVAWKADSSPVKAGVETTTPSKQSNNKYAASSYLSLTPEQWKSHRSYSCQVTHEGSTVEKTVAPTECS
notes: Human IgG1 with N297A (Fc silent); also called Fc silent NOV1216
- binding result [1]: binds
- binding affinity [2]: 1.4 nM
- binding affinity (printed 'BJABs:') [3]: 0.7 nM

B3: afucosylated NOV2108 (antibody, human IgG1, lambda)
heavy: not shown
light: SYELTQPLSVSVALGQTARITCSGDNIPQHSVHWYQQKPGQAPVLVIYDDTERPSGIPERFSGSNSGNTATLTISRAQAGDEADYYCSSWDSSMDSVVFGGGTKLTVLGQPKAAPSVTLFPPSSEELQANKATLVCLISDFYPGAVTVAWKADSSPVKAGVETTTPSKQSNNKYAASSYLSLTPEQWKSHRSYSCQVTHEGSTVEKTVAPTECS
modifications: afucosylated: N-glycan structure lacking core fucose
notes: also called NOV2108, afucosylated antibody; NOV2108 (afucosylated format)
- Kd (huCD32b-deglyco [4]): 16 nM
- koff (huCD32b-deglyco [4]): 0.11 s⁻¹
- kon (huCD32b-deglyco [4]): 6.8e+06 M⁻¹ s⁻¹

B6: NOV2108_N297A (antibody, human IgG1, lambda, N297A)
heavy: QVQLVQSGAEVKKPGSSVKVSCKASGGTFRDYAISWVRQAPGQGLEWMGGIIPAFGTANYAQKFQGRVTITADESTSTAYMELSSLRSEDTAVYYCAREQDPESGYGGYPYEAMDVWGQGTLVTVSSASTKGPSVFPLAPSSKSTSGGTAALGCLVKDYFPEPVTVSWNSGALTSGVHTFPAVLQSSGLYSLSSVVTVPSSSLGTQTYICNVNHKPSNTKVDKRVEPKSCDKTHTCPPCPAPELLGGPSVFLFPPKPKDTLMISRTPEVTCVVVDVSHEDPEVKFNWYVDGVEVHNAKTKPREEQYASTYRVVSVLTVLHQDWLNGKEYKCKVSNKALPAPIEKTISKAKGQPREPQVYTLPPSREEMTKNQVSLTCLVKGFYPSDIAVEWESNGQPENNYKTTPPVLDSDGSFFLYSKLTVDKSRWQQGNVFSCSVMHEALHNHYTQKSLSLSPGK
light: SYELTQPLSVSVALGQTARITCSGDNIPQHSVHWYQQKPGQAPVLVIYDDTERPSGIPERFSGSNSGNTATLTISRAQAGDEADYYCSSWDSSMDSVVFGGGTKLTVLGQPKAAPSVTLFPPSSEELQANKATLVCLISDFYPGAVTVAWKADSSPVKAGVETTTPSKQSNNKYAASSYLSLTPEQWKSHRSYSCQVTHEGSTVEKTVAPTECS
notes: CDR-H3 mutant of NOV1216; human IgG1 with N297A; Alexa Fluor 647-labelled in flow cytometry; also called Fc silent NOV2108 [N297A]
- Kd (huCD32b-deglyco [6]): 18 nM
- koff (huCD32b-deglyco [6]): 0.29 s⁻¹
- kon (huCD32b-deglyco [6]): 1.5e+07 M⁻¹ s⁻¹

B7: NOV1218 (antibody, human IgG1, lambda, N297A)
heavy chain: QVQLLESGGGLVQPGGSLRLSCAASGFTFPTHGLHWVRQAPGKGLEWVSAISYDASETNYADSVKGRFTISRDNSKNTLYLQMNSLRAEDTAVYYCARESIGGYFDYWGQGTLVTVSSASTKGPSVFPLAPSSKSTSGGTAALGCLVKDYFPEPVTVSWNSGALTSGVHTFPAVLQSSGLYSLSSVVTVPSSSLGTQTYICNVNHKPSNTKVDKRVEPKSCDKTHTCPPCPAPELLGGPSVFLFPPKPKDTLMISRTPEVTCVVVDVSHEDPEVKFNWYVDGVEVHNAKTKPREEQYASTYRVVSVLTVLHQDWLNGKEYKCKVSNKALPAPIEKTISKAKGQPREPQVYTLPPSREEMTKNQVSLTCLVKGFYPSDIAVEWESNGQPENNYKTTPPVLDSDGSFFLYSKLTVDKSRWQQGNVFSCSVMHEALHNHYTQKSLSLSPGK
light chain: SYELTQPLSVSVALGQTARITCSGDALGKNTVSWYQQKPGQAPVLVIYDDTDRPSGIPERFSGSNSGNTATLTISRAQAGDEADYYCSSTDLSTVVFGGGTKLTVLGQPKAAPSVTLFPPSSEELQANKATLVCLISDFYPGAVTVAWKADSSPVKAGVETTTPSKQSNNKYAASSYLSLTPEQWKSHRSYSCQVTHEGSTVEKTVAPTECS
notes: also called NOV1218_N297A; NOV1218 N297A
- binding result [1]: binds
- binding result (MW82 (huCD32a H131)): binds
- binding affinity (printed 'BJABs:') [3]: 19 nM

B8: NOV0308_N297A (antibody, human IgG1, lambda, N297A)
heavy: not shown
light: DIELTQPPSVSVSPGQTASITCSGDNLGSKYVHWYQQKPGQAPVLVIYDDNKRPSGIPERFSGSNSGNTATLTISGTQAEDEADYYCQSWTLGNWVFGGGTKLTVLGQPKAAPSVTLFPPSSEELQANKATLVCLISDFYPGAVTVAWKADSSPVKAGVETTTPSKQSNNKYAASSYLSLTPEQWKSHRSYSCQVTHEGSTVEKTVAPTECS
notes: also called NOV0308 on a human IgG1 [N297A] scaffold
- binding result [1]: binds
- binding affinity (printed 'BJABs:') [3]: 4.2 nM
